The values below come from patent US20210032330A1.

In this experiment the target is cynomolgus TIM-3 (cynomolgus). Kind of experiment: BLI (OCTET Red96), mAb on anti-mouse Fc biosensor, antigen in solution, 1:1 model.

B1: anti-TIM-3 monoclonal antibody 16-L3-A (antibody, V domains shown)
VH: QVQLQQSGPELVKPGASVKMSCKASGYTFTSYYIHWVKQRPGQGLEWIGWIYPGDGSTKYNEKFKGKTTLTADKSSSTAYMLLSSLTSEDSAIYFCATDRYDVAYWGQGTLVTVSA
VL: EIVLTQSPALMAASPGEKVTITCSVSSSISSSNLHWYQQKSETSPKPWIYGTSNLASGVPVRFSGSGSGTSYSLTISSMEAEDAATYYCQQWSSYPLTFGAGTKLELK
For B1, the Kd (commonly the concentration at which binding is half-saturated) was determined as 6.5 nM.

B2: anti-TIM-3 monoclonal antibody 18-N1-A (antibody, V domains shown)
VH: QVQLQQPGAELVRPGVSVKLSCKASGYTFTSYWMHWIKQRPEQGLERIGEINPSNGGTNYNEKFKNKATLTVDKSSSTAYMQLSSLTSEDSAVYYCARSYYTYDAIDYWGQGTSVTVSS
VL: DIVMSQSPSSLAVSAGEKVTMSCKSSQSLLNSRTRKNYLAWYQQKPGQSPKLLIYWASTRESGVPDRFTGSGSGTDFTLTISSVQAEDLAVYYCKQSYNLYTFGGGTKLEIK
In turn, B2 had a Kd of 14 nM.

B3: anti-TIM-3 monoclonal antibody 6-I13-A (antibody, V domains shown)
VH: EVQLQQSGPELEKPGASVKISCKASGYSFTGYNMNWVKQSNGKSLEWIGNIDPYYGVTSYNQKFKGKATLTVDKSSSTAYMQLKSLTSEDSAVYYCASYSLTYDGYYPFAYWGQGTLVTVSA
VL: DIVLTQSPASLAVSLGQRATISCRASKSVSTSGYSYMHWYQQKPGQPPKLLIYLASNLESGVPARFSGSGSGTDFTLNIHPVEEEDAATYYCQHSRELPYTFGGGTKLEIK
In turn, B3 gave a Kd of 5.2 nM.

B4: anti-TIM-3 monoclonal antibody 10-O15-A (antibody, V domains shown)
VH: QVQLQQSGADLVRPGASVKLSCKALGYTFTDYEMHWVKQTPVHGLEWIGAIHPGSGGTAYNQKFKGKATLTADKSSSTAYMELSSLTSEDSAVYFCSRSYYRYTGYFDVWGAGTTVTVSS
VL: DIVLTQSPASLAVSLGQRATISCRASKSVSASGYSYMHWYQQKPGQPPKLLIYLASNLESGVPARFSGSGSGTDFTLNVHPVEEEDAATYYCQHSRELPFTFGSGTKLEIK
For the molecule B4, the Kd was found to be 2.9 nM. Compared with the last molecule, the Kd is about 1.8-fold lower.

B5: anti-TIM-3 monoclonal antibody 16-K5-A (antibody, V domains shown)
VH: QVQLQQSGAELVKPGASVKLSCKASGYTFTSSDINWVRQRPEQGLEWIGWIFPGDGSTKYNEKFKGKATLTTDKSSSTAYMQLSRLTSEDSAVYFCARGLDYWGQGTTLTVSS
VL: DIKMTQSPSSMYASLGERVTITCKASQDINSYLGWFQQKPGKSPKTLIYRADRLVDGVPSRFSGSGSGQDYSLTISSLEYEDMGIYYCLQYDEFPLTFGAGTKLELK
As to B5, the Kd amounted to 6.4 nM. This Kd is about 2.2-fold higher than that of the molecule before.

B6: anti-TIM-3 monoclonal antibody 5-K4-A (antibody, V domains shown)
VH: EVQLQQSGPELVKTGASVKISCKASGYSFTAYYIHWVKQSHGKSLEWIGHISCFNGATSYNQKFKGKATFTVDTSSSTAYMQFNSLTSEDSAVYYCARRGDFDRPEFAYWGQGTLVTVSA
VL: DIVLTQSPASLAVSLGQRATISCRASESVEYYGTSLMQWYQQKPGQPPKLLIYAASNVESGVPARFSGSGSGTDFSLNIHPVEEDDIAMYFCQQSRKVPWTFGGGTKLEIK
B6 displayed a Kd of 6.7 nM.

B7: anti-TIM-3 monoclonal antibody 10-M21-A (antibody, V domains shown)
VH: DVQLQESGPTLVKPSQTLSLTCSVTGDSITSGYWNWIRKFPGNKLEYMGYISYSGSTYYNPSLKSRISIIRDTSKNQYYLQLNSVTTEDTATYYCVSGNHFDYWGQGTTLTVSS
VL: DIQMTQSPSSLSASLGGKVTITCKASQDINRYIAWYQHKPGKGPRLLIHYTSTLQPGIPSRFSGSGSGRDYSFSISNLEPEDIATYYCLQYDNLLFTFGSGTKLEIK
Consider B7, for which the Kd came to 7.5 nM. This Kd and that of the molecule before are within 1.5-fold of each other.
